{"source": "patent US7906477", "key": {"[1]": {"system": "T1, Abz-GKAFRRLY′", "T1 sequence": "GKAFRRLY", "settings": "for Relative hydrolysis rate: scale: relative"}, "[2]": {"system": "T2, ac-GKAFRR-L12ADT (SEQ ID NO:41)", "T2 sequence": "GKAFRRX", "settings": "for Relative hydrolysis rate: scale: relative"}, "[3]": {"system": "T3, GKAFR-AMC", "T3 sequence": "GKAFR"}, "[4]": {"system": "T4, Y′GKAFRLK′-PEGA (SEQ ID NO:52)", "T4 sequence": "XGKAFRLX"}, "[5]": {"system": "T5, Y′GKAFRR-Dap-FK′ (SEQ ID NO:38)", "T5 sequence": "XGKAFRRXFX"}, "[6]": {"system": "T6, Y′GKAFRRLGK′ (SEQ ID NO:21)", "T6 sequence": "XGKAFRRLGX"}, "[7]": {"system": "T7, Y′GKAKPR-Dap-FK′ (SEQ ID NO:37)", "T7 sequence": "XGKAKPRXFX"}, "[8]": {"system": "T8, Y′GKAMRQ-Dap-FK′ (SEQ ID NO:39)", "T8 sequence": "XGKAMRQXFX"}, "[9]": {"system": "T9, Y′GKARAF-Dap-FK′ (SEQ ID NO:36)", "T9 sequence": "XGKARAFXFX"}, "[10]": {"system": "T10, Y′GSKGHFHL-Dap-K′ (SEQ ID NO:47)", "T10 sequence": "XGSKGHFHLXX"}, "[11]": {"system": "T11, Y′GSKGHFKL-Dap-F-K′ (SEQ ID NO:40)", "T11 sequence": "XGSKGHFKLXFX"}, "[12]": {"system": "T12, Y′GSKGHFKL-Dap-K′ (SEQ ID NO:45)", "T12 sequence": "XGSKGHFKLXX"}, "[13]": {"system": "T13, Y′GSKGPFKL-Dap-K′ (SEQ ID NO:46)", "T13 sequence": "XGSKGPFKLXX"}, "[14]": {"system": "T14, ac-GKAFRRLG (SEQ ID NO:43)", "T14 sequence": "GKAFRRLG"}, "[15]": {"system": "soluble non-arginine containing peptides"}}, "data": [{"substance": "Cathepsin B", "values": [{"measurement": "hydrolysis by protease", "setting": "[1]", "value": "No appreciable hydrolysis of either substrate was observed following incubation with Cathepsin D or Cathepsin B"}, {"measurement": "Relative hydrolysis rate", "setting": "[1]", "value": 1}, {"measurement": "hydrolysis by protease", "setting": "[2]", "value": "No appreciable hydrolysis of either substrate was observed following incubation with Cathepsin D or Cathepsin B"}, {"measurement": "Relative hydrolysis rate", "setting": "[2]", "value": 1}]}, {"substance": "Cathepsin D", "values": [{"measurement": "hydrolysis by protease", "setting": "[1]", "value": "No appreciable hydrolysis of either substrate was observed following incubation with Cathepsin D or Cathepsin B"}, {"measurement": "Relative hydrolysis rate", "setting": "[1]", "value": 1}, {"measurement": "hydrolysis by protease", "setting": "[2]", "value": "No appreciable hydrolysis of either substrate was observed following incubation with Cathepsin D or Cathepsin B"}, {"measurement": "Relative hydrolysis rate", "setting": "[2]", "value": 1}]}, {"substance": "Plasmin", "values": [{"measurement": "rate of hydrolysis relative to hK2", "setting": "[1]", "value": "Plasmin had a more than 10-fold slower rate of hydrolysis of the peptide substrate than hK2"}, {"measurement": "Relative hydrolysis rate", "setting": "[1]", "value": 36}]}, {"substance": "Urokinase", "values": [{"measurement": "hydrolysis by protease", "setting": "[1]", "value": "Urokinase showed low activity on the fluorescence quenched peptide substrate"}, {"measurement": "Relative hydrolysis rate", "setting": "[1]", "value": 17}, {"measurement": "Relative hydrolysis rate", "setting": "[2]", "value": 1}]}, {"substance": "human glandular kallikrein 2 (hK2), enzymatically active", "values": [{"measurement": "Relative hydrolysis rate", "setting": "[1]", "value": 353}, {"measurement": "Km", "setting": "[3]", "value": "Km 146 µM"}, {"measurement": "kcat", "setting": "[3]", "value": "kcat 0.13 sec^-1"}, {"measurement": "kcat/Km", "setting": "[3]", "value": "kcat/Km 895 sec^-1 M^-1"}, {"measurement": "incubation time until fluorescent beads (on-bead digestion, 4 µg/ml hK2)", "setting": "[4]", "value": "digested to yield fluorescent beads after 10-12 hours of incubation with 4 µg/ml hK2"}, {"measurement": "Michaelis-Menten constant (Km)", "setting": "[5]", "value": "The Michaelis-Menten constant (Km) was determined at 26.5 µM"}, {"measurement": "hK2 mediated hydrolysis (fluorescence, 250 µM substrate, 8 µg/ml hK2)", "setting": "[5]", "value": "by far exceeded all other substrates"}, {"measurement": "kcat", "setting": "[5]", "value": "the kcat at 1.09 sec^-1"}, {"measurement": "kcat/Km ratio", "setting": "[5]", "value": "the kcat/Km ratio was 41,132 sec^-1 M^-1"}, {"measurement": "on-bead digestion with hK2 (fluorescence)", "setting": "[5]", "value": "reproduced fluorescence when these peptides were digested on-bead with hK2"}, {"measurement": "time to maximum digestion (70-75%)", "setting": "[5]", "value": "a value that was reached with Y′GKAFRR-Dap-F-K′ (SEQ ID NO:38) in less than 15 minutes"}, {"measurement": "time to more than 50% digestion (500 µM peptide, 4 µg/ml hK2)", "setting": "[5]", "value": "In less than five minutes, more than 50% of the peptide was digested"}, {"measurement": "hK2 hydrolysis rate (fluorescence)", "setting": "[6]", "value": "Substitution of Dap-F with Leu-Gly resulted in only a modest decrease in hydrolysis rate"}, {"measurement": "on-bead digestion with hK2 (fluorescence)", "setting": "[7]", "value": "reproduced fluorescence when these peptides were digested on-bead with hK2"}, {"measurement": "time to digestion of the same amount (more than 50%) of peptide", "setting": "[7]", "value": "For the other peptides, digestion of the same amount of peptide took 19-29 minutes"}, {"measurement": "on-bead digestion with hK2 (fluorescence)", "setting": "[8]", "value": "reproduced fluorescence when these peptides were digested on-bead with hK2"}, {"measurement": "time to digestion of the same amount (more than 50%) of peptide", "setting": "[8]", "value": "For the other peptides, digestion of the same amount of peptide took 19-29 minutes"}, {"measurement": "on-bead digestion with hK2 (fluorescence)", "setting": "[9]", "value": "reproduced fluorescence when these peptides were digested on-bead with hK2"}, {"measurement": "time to digestion of the same amount (more than 50%) of peptide", "setting": "[9]", "value": "For the other peptides, digestion of the same amount of peptide took 19-29 minutes"}, {"measurement": "digestion by hK2 in solution (fluorescence-quenched peptide)", "setting": "[10]", "value": "none of these three arginine free peptides were digested by hK2, even after prolonged incubation"}, {"measurement": "hK2 mediated hydrolysis (fluorescence, 250 µM substrate, 8 µg/ml hK2)", "setting": "[11]", "value": "did not show any hydrolysis"}, {"measurement": "digestion by hK2 in solution (fluorescence-quenched peptide)", "setting": "[12]", "value": "none of these three arginine free peptides were digested by hK2, even after prolonged incubation"}, {"measurement": "digestion by hK2 in solution (fluorescence-quenched peptide)", "setting": "[13]", "value": "none of these three arginine free peptides were digested by hK2, even after prolonged incubation"}, {"measurement": "hydrolysis by hK2 (4 µg/ml), HPLC", "setting": "[2]", "value": "the hK2 prodrug is rapidly cleaved by hK2"}, {"measurement": "percent of starting prodrug hydrolyzed after 1 hour (4 µg/ml hK2, HPLC)", "setting": "[2]", "value": "after 1 hour, more than 80% of the starting prodrug was hydrolyzed"}, {"measurement": "time to 50% hydrolysis (4 µg/ml hK2, HPLC)", "setting": "[2]", "value": "In 25 min, 50% was hydrolyzed"}, {"measurement": "Relative hydrolysis rate", "setting": "[2]", "value": 125}, {"measurement": "hydrolysis by hK2 (HPLC)", "setting": "[14]", "value": "this peptide was rapidly hydrolyzed by hK2"}, {"measurement": "hydrolysis by hK2 in solution", "setting": "[15]", "value": "the soluble non-arginine containing peptides were not hydrolyzed by hK2"}]}]}
